Data taken from PMC3145977, “Thermostabilisation of an Agonist-Bound Conformation of the Human Adenosine A2A Receptor” (Journal of Molecular Biology, 2011).

B1: GL21: A2AR mutant L48A-Q89A-A54L (protein, UniProt P29274 1-412, looked up, variant L48A Q89A A54L)
Adenosine receptor A2a: MPIMGSSVYITVELAIAVLAILGNVLVCWAVWLNSNLQNVTNYFVVSAAAADILVGVLAIPFAITISTGFCAACHGCLFIACFVLVLTASSIFSLLAIAIDRYIAIRIPLRYNGLVTGTRAKGIIAICWVLSFAIGLTPMLGWNNCGQPKEGKNHSQGCGEGQVACLFEDVVPMNYMVYFNFFACVLVPLLLMLGVYLRIFLAARRQLKQMESQPLPGERARSTLQKEVHAAKSLAIIVGLFALCWLPLHIINCFTFFCPDCSHAPLWLMYLAIVLSHTNSVVNPFIYAYRIREFRQTFRKIIRSHVLRQQEPFKAAGTSARVLAAHGSDGEQVSLRLNGHPPGVWANGSAPHPERRPNGYALGLVSGGSAQESQGNTGLPDVELLSHELKGVCPEPPGLDDPLAQDGAGVS
B2: GL29: A2AR mutant L48A-Q89A-T65A- S263A (protein, UniProt P29274 1-412, looked up, variant L48A Q89A T65A S263A)
Adenosine receptor A2a: MPIMGSSVYITVELAIAVLAILGNVLVCWAVWLNSNLQNVTNYFVVSAAAADIAVGVLAIPFAIAISTGFCAACHGCLFIACFVLVLTASSIFSLLAIAIDRYIAIRIPLRYNGLVTGTRAKGIIAICWVLSFAIGLTPMLGWNNCGQPKEGKNHSQGCGEGQVACLFEDVVPMNYMVYFNFFACVLVPLLLMLGVYLRIFLAARRQLKQMESQPLPGERARSTLQKEVHAAKSLAIIVGLFALCWLPLHIINCFTFFCPDCAHAPLWLMYLAIVLSHTNSVVNPFIYAYRIREFRQTFRKIIRSHVLRQQEPFKAAGTSARVLAAHGSDGEQVSLRLNGHPPGVWANGSAPHPERRPNGYALGLVSGGSAQESQGNTGLPDVELLSHELKGVCPEPPGLDDPLAQDGAGVS
B3: GL24: A2AR mutant L48A-Q89A-F79A (protein, UniProt P29274 1-412, looked up, variant L48A Q89A F79A)
Adenosine receptor A2a: MPIMGSSVYITVELAIAVLAILGNVLVCWAVWLNSNLQNVTNYFVVSAAAADIAVGVLAIPFAITISTGFCAACHGCLAIACFVLVLTASSIFSLLAIAIDRYIAIRIPLRYNGLVTGTRAKGIIAICWVLSFAIGLTPMLGWNNCGQPKEGKNHSQGCGEGQVACLFEDVVPMNYMVYFNFFACVLVPLLLMLGVYLRIFLAARRQLKQMESQPLPGERARSTLQKEVHAAKSLAIIVGLFALCWLPLHIINCFTFFCPDCSHAPLWLMYLAIVLSHTNSVVNPFIYAYRIREFRQTFRKIIRSHVLRQQEPFKAAGTSARVLAAHGSDGEQVSLRLNGHPPGVWANGSAPHPERRPNGYALGLVSGGSAQESQGNTGLPDVELLSHELKGVCPEPPGLDDPLAQDGAGVS
B4: GL5: A2AR mutant L48A-V57A (protein, UniProt P29274 1-412, looked up, variant L48A V57A)
Adenosine receptor A2a: MPIMGSSVYITVELAIAVLAILGNVLVCWAVWLNSNLQNVTNYFVVSAAAADIAVGALAIPFAITISTGFCAACHGCLFIACFVLVLTQSSIFSLLAIAIDRYIAIRIPLRYNGLVTGTRAKGIIAICWVLSFAIGLTPMLGWNNCGQPKEGKNHSQGCGEGQVACLFEDVVPMNYMVYFNFFACVLVPLLLMLGVYLRIFLAARRQLKQMESQPLPGERARSTLQKEVHAAKSLAIIVGLFALCWLPLHIINCFTFFCPDCSHAPLWLMYLAIVLSHTNSVVNPFIYAYRIREFRQTFRKIIRSHVLRQQEPFKAAGTSARVLAAHGSDGEQVSLRLNGHPPGVWANGSAPHPERRPNGYALGLVSGGSAQESQGNTGLPDVELLSHELKGVCPEPPGLDDPLAQDGAGVS
B5: GL22: A2AR mutant L48A-Q89A-F62A (protein, UniProt P29274 1-412, looked up, variant L48A Q89A F62A)
Adenosine receptor A2a: MPIMGSSVYITVELAIAVLAILGNVLVCWAVWLNSNLQNVTNYFVVSAAAADIAVGVLAIPAAITISTGFCAACHGCLFIACFVLVLTASSIFSLLAIAIDRYIAIRIPLRYNGLVTGTRAKGIIAICWVLSFAIGLTPMLGWNNCGQPKEGKNHSQGCGEGQVACLFEDVVPMNYMVYFNFFACVLVPLLLMLGVYLRIFLAARRQLKQMESQPLPGERARSTLQKEVHAAKSLAIIVGLFALCWLPLHIINCFTFFCPDCSHAPLWLMYLAIVLSHTNSVVNPFIYAYRIREFRQTFRKIIRSHVLRQQEPFKAAGTSARVLAAHGSDGEQVSLRLNGHPPGVWANGSAPHPERRPNGYALGLVSGGSAQESQGNTGLPDVELLSHELKGVCPEPPGLDDPLAQDGAGVS
B6: GL4: A2AR mutant L48A-A54L (protein, UniProt P29274 1-412, looked up, variant L48A A54L)
Adenosine receptor A2a: MPIMGSSVYITVELAIAVLAILGNVLVCWAVWLNSNLQNVTNYFVVSAAAADILVGVLAIPFAITISTGFCAACHGCLFIACFVLVLTQSSIFSLLAIAIDRYIAIRIPLRYNGLVTGTRAKGIIAICWVLSFAIGLTPMLGWNNCGQPKEGKNHSQGCGEGQVACLFEDVVPMNYMVYFNFFACVLVPLLLMLGVYLRIFLAARRQLKQMESQPLPGERARSTLQKEVHAAKSLAIIVGLFALCWLPLHIINCFTFFCPDCSHAPLWLMYLAIVLSHTNSVVNPFIYAYRIREFRQTFRKIIRSHVLRQQEPFKAAGTSARVLAAHGSDGEQVSLRLNGHPPGVWANGSAPHPERRPNGYALGLVSGGSAQESQGNTGLPDVELLSHELKGVCPEPPGLDDPLAQDGAGVS
B7: GL6: A2AR mutant L48A-F62A (protein, UniProt P29274 1-412, looked up, variant L48A F62A)
Adenosine receptor A2a: MPIMGSSVYITVELAIAVLAILGNVLVCWAVWLNSNLQNVTNYFVVSAAAADIAVGVLAIPAAITISTGFCAACHGCLFIACFVLVLTQSSIFSLLAIAIDRYIAIRIPLRYNGLVTGTRAKGIIAICWVLSFAIGLTPMLGWNNCGQPKEGKNHSQGCGEGQVACLFEDVVPMNYMVYFNFFACVLVPLLLMLGVYLRIFLAARRQLKQMESQPLPGERARSTLQKEVHAAKSLAIIVGLFALCWLPLHIINCFTFFCPDCSHAPLWLMYLAIVLSHTNSVVNPFIYAYRIREFRQTFRKIIRSHVLRQQEPFKAAGTSARVLAAHGSDGEQVSLRLNGHPPGVWANGSAPHPERRPNGYALGLVSGGSAQESQGNTGLPDVELLSHELKGVCPEPPGLDDPLAQDGAGVS
B8: GL27: A2AR mutant L48A-Q89A-T65A-F83A (protein, UniProt P29274 1-412, looked up, variant L48A Q89A T65A F83A)
Adenosine receptor A2a: MPIMGSSVYITVELAIAVLAILGNVLVCWAVWLNSNLQNVTNYFVVSAAAADIAVGVLAIPFAIAISTGFCAACHGCLFIACAVLVLTASSIFSLLAIAIDRYIAIRIPLRYNGLVTGTRAKGIIAICWVLSFAIGLTPMLGWNNCGQPKEGKNHSQGCGEGQVACLFEDVVPMNYMVYFNFFACVLVPLLLMLGVYLRIFLAARRQLKQMESQPLPGERARSTLQKEVHAAKSLAIIVGLFALCWLPLHIINCFTFFCPDCSHAPLWLMYLAIVLSHTNSVVNPFIYAYRIREFRQTFRKIIRSHVLRQQEPFKAAGTSARVLAAHGSDGEQVSLRLNGHPPGVWANGSAPHPERRPNGYALGLVSGGSAQESQGNTGLPDVELLSHELKGVCPEPPGLDDPLAQDGAGVS
B9: GL1: A2AR mutant L48A-V12A (protein, UniProt P29274 1-412, looked up, variant L48A V12A)
Adenosine receptor A2a: MPIMGSSVYITAELAIAVLAILGNVLVCWAVWLNSNLQNVTNYFVVSAAAADIAVGVLAIPFAITISTGFCAACHGCLFIACFVLVLTQSSIFSLLAIAIDRYIAIRIPLRYNGLVTGTRAKGIIAICWVLSFAIGLTPMLGWNNCGQPKEGKNHSQGCGEGQVACLFEDVVPMNYMVYFNFFACVLVPLLLMLGVYLRIFLAARRQLKQMESQPLPGERARSTLQKEVHAAKSLAIIVGLFALCWLPLHIINCFTFFCPDCSHAPLWLMYLAIVLSHTNSVVNPFIYAYRIREFRQTFRKIIRSHVLRQQEPFKAAGTSARVLAAHGSDGEQVSLRLNGHPPGVWANGSAPHPERRPNGYALGLVSGGSAQESQGNTGLPDVELLSHELKGVCPEPPGLDDPLAQDGAGVS
B10: GL25: A2AR mutant L48A-Q89A-T65A-A50L (protein, UniProt P29274 1-412, looked up, variant L48A Q89A T65A A50L)
Adenosine receptor A2a: MPIMGSSVYITVELAIAVLAILGNVLVCWAVWLNSNLQNVTNYFVVSAALADIAVGVLAIPFAIAISTGFCAACHGCLFIACFVLVLTASSIFSLLAIAIDRYIAIRIPLRYNGLVTGTRAKGIIAICWVLSFAIGLTPMLGWNNCGQPKEGKNHSQGCGEGQVACLFEDVVPMNYMVYFNFFACVLVPLLLMLGVYLRIFLAARRQLKQMESQPLPGERARSTLQKEVHAAKSLAIIVGLFALCWLPLHIINCFTFFCPDCSHAPLWLMYLAIVLSHTNSVVNPFIYAYRIREFRQTFRKIIRSHVLRQQEPFKAAGTSARVLAAHGSDGEQVSLRLNGHPPGVWANGSAPHPERRPNGYALGLVSGGSAQESQGNTGLPDVELLSHELKGVCPEPPGLDDPLAQDGAGVS

test system: [^3H]NECA-bound A2AR; experiment: Thermostability assay of detergent-solubilised receptor with [3H]NECA bound (ligand plus format); assay type: physicochemical, human
Procedure: […]. After solubilisation in DDM, A2AR was bound to Ni^2+-NTA resin, washed to reduce the DDM concentration and then eluted (see Methods). […]. An aliquot of E. coli cells (14 mL) was thawed on ice and resupended in 500 μL of buffer A [50 mM Tris–HCl (pH 7.4), 0.4 M NaCl, 250 μg/mL lysozyme (Sigma) and 1 mg/mL DNase I (Sigma), supplemented with complete ethylenediaminetetraacetic acid (EDTA)-free Protease inhibitor cocktail (Roche)] and incubated for 1 h at 4 °C. Samples were then sonicated for 1 min at 4 °C using a cup-horn sonicator. The receptors were solubilised by adding 1% DDM and incubated for 1 h at 4 °C. Insoluble material was removed by centrifugation (5 min, 13,000g, 4 °C). The solubilised receptors were partially purified with Ni-NTA agarose (Qiagen). Agarose beads (300 μL) pre-equilibrated in buffer A were added to 700 μL of solubilised receptor. […].
The sample was incubated for 45 min at 4 °C, then 30 min at the specified temperature and then 30 min at 4 °C. Receptor-bound and free radioligands were separated as previously described on mini gel-filtration columns.[26] Receptor-bound ligands were transferred to a 96-well plate (PerkinElmer) and mixed with 200 μL of Optiphase supermix (PerkinElmer). The bound ^3H-labeled ligand was determined using a 1450 Microbeta Trilux counter (1 min per sample).
For all the thermostabilisation studies carried out in our laboratory, the apparent Tm is the temperature for which 50% of the solubilised receptor remains folded after 30 min of incubation. The rate constant of the protein denaturation is a function of the temperature, and consequently, thermal denaturation of a protein can be compared to a chemical reaction for which the rate of the reaction is dependant on the temperature. Arrhenius established that any chemical reaction is temperature dependant. […]. The reference measurement representing the total binding activity of the sample A0 was considered to be measured at 4 °C. From the graphical representation t = Log10(t1/2) (Fig. 2c), we could extract a half-life for each construct at any temperature to define the improvement in stability of the various mutants compared to WT A2AR.

Molecule	Apparent Tm in DDM, Single measurement [°C]	Apparent Tm in DM, Single measurement [°C]
B1	46	
B2		44.5
B3	46	
B4	41.5	
B5	45.5	
B6	46	
B7	45	
B8		44
B9	45.5	
B10		44.5
